{"source": "patent US20030219387A1", "about": "“Local delivery of agents for disruption and inhibition of bacterial biofilm for treatment of periodontal disease” (priority 2000, published 2003)", "origin": "cited, not measured here", "tested_on": "binding of cells", "settings": "iron-saturated form"}
{"molecule": "Lactoferrin: iron-binding salivary protein (protein, UniProt P02788 20-710, looked up, iron saturated) Lactotransferrin: GRRRSVQWCAVSQPEATKCFQWQRNMRKVRGPPVSCIKRDSPIQCIQAIAENRADAVTLDGGFIYEAGLAPYKLRPVAAEVYGTERQPRTHYYAVAVVKKGGSFQLNELQGLKSCHTGLRRTAGWNVPIGTLRPFLNWTGPPEPIEAAVARFFSASCVPGADKGQFPNLCRLCAGTGENKCAFSSQEPYFSYSGAFKCLRDGAGDVAFIRESTVFEDLSDEAERDEYELLCPDNTRKPVDKFKDCHLARVPSHAVVARSVNGKEDAIWNLLRQAQEKFGKDKSPKFQLFGSPSGQKDLLFKDSAIGFSRVPPRIDSGLYLGSGYFTAIQNLRKSEEEVAARRARVVWCAVGEQELRKCNQWSGLSEGSVTCSSASTTEDCIALVLKGEADAMSLDGGYVYTAGKCGLVPVLAENYKSQQSSDPDPNCVDRPVEGYLAVAVVRRSDTSLTWNSVKGKKSCHTAVDRTAGWNIPMGLLFNQTGSCKFDEYFSQSCAPGSDPRSNLCALCIGDEQGENKCVPNSNERYYGYTGAFRCLAENAGDVAFVKDVTVLQNTDGNNNEAWAKDLKLADFALLCLDGKRKPVTEARSCHLAMAPNHAVVSRMDKVERLKQVLLHQQAKFGRNGSDCPDKFCLFQSETKNLLFNDNTECLARLHGKTTYEKYLGPQYVAGITNLKKCSTSPLLEACEFLRK", "values": [{"measurement": "binding of cells", "result": "reduce binding of cells"}]}
